Measured values from article PMC8113450.

Biological target: wild-type human Elp123 sub-complex (hElp123WT) (human) (UniProt O95163)
Assay: SEC; gel filtration of purified hElp123 on Superose 6 Increase 10/300 GL; 20 mM HEPES, 150 mM NaCl, 5 mM DTT, pH 8.0; Elp1-Elp2-Elp3 trimer to dimer of trimers

stoichiometry N: 2
Substance: wild-type human Elp123 sub-complex (hElp123WT), O95163 1-1332; Q6IA86 1-826; Q9H9T3 1-547
